From patent publication US20230348571A1 (VANDERBILT UNIVERSITY, published 2023) come the findings set out here.

One test has as its target T1, SS-B/La (UniProt P05455 1-408).
T1 construct: Kit antigen
T1 sequence: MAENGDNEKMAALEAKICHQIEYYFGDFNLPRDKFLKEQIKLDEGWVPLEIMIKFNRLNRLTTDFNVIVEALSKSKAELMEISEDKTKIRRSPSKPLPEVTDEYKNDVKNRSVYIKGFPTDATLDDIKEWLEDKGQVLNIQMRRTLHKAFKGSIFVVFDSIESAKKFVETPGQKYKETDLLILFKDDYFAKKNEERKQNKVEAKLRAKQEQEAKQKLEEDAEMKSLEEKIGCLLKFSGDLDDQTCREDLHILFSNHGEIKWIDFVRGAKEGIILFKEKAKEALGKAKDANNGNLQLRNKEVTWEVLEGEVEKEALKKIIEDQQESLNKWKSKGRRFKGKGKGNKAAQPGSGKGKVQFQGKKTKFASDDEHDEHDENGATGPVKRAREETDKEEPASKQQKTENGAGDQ
The test is described as follows: Luminex AtheNA Multi-Lyte ANA-II Plus bead assay.

A further test deals with T2, centromere B (UniProt P07199 2-599).
T2 construct: Kit antigen
T2 sequence: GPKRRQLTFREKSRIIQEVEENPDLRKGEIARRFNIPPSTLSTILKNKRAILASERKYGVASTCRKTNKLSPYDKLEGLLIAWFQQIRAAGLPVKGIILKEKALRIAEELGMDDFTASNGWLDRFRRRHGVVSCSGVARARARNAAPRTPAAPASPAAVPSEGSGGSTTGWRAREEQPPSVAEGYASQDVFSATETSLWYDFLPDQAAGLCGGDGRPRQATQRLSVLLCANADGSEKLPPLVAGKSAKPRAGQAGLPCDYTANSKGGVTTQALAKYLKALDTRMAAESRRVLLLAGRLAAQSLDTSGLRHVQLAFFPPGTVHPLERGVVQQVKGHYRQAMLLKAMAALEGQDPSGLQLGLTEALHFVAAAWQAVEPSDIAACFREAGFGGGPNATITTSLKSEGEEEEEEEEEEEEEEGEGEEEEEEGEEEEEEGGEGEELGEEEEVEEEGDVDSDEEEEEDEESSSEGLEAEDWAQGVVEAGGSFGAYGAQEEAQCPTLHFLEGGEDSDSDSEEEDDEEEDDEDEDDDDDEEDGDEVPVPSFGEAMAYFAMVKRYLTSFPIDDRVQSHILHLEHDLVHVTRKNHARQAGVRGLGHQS
The test is described as follows: Luminex AtheNA Multi-Lyte ANA-II Plus bead assay.

For a further test, the target named is T3, Jo-1 (UniProt P12081 2-509).
T3 construct: Kit antigen
T3 sequence: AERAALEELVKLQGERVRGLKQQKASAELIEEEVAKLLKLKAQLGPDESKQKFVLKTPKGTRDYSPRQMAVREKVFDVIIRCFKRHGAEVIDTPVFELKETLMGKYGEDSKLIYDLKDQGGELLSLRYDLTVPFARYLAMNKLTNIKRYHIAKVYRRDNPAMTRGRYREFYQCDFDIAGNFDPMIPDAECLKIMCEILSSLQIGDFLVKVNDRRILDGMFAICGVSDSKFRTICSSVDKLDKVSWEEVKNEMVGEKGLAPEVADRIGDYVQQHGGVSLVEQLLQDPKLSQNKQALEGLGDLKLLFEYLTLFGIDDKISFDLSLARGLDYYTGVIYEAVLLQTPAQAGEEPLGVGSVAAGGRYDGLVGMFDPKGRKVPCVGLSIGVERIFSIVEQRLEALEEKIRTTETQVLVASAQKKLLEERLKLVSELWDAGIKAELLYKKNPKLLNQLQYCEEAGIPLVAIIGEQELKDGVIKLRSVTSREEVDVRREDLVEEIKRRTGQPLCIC
Kind of test: Luminex AtheNA Multi-Lyte ANA-II Plus bead assay.

The target in another test is T4, Scl 70 (UniProt P11387 2-765).
T4 construct: Kit antigen
T4 sequence: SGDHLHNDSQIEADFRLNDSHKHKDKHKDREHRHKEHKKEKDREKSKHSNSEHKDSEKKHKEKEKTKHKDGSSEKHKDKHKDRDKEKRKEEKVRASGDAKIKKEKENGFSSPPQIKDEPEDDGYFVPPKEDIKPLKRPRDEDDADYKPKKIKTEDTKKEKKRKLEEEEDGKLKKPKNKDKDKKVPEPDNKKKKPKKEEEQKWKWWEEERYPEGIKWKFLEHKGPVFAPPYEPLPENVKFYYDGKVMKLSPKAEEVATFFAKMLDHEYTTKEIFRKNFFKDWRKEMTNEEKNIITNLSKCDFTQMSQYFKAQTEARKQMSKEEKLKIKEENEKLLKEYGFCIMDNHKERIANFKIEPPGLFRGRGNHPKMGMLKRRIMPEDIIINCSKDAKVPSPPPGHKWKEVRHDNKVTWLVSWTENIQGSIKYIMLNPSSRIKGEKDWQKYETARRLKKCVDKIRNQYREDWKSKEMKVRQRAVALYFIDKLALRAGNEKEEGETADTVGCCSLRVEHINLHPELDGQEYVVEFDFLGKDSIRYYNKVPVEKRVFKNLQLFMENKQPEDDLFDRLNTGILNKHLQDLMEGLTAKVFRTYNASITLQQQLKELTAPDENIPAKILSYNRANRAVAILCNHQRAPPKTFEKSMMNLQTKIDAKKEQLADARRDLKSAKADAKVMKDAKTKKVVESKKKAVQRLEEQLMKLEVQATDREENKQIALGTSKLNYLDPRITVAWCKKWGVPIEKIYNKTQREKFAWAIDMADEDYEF
The test is described as follows: Luminex AtheNA Multi-Lyte ANA-II Plus bead assay.

A further test addresses T5, SARS-CoV-2 S2 domain (SARS-CoV-2, UniProt P0DTC2 686-1213).
T5 construct: domain: S2; also called the S2 domain
The test is described as follows: ELISA on SARS-CoV-2 subdomain proteins (FIG. 15A, FIG. 19A). For orientation: ELISA stands for enzyme-linked immunosorbent assay.

The next test addresses T6, SARS-CoV-2 S1 domain (SARS-CoV-2, UniProt P0DTC2 16-685).
T6 construct: domain: S1; also called the S1 domain
The test is described as above.

In another test the target is T7, SARS-CoV-2 NTD (SARS-CoV-2, UniProt P0DTC2 16-305).
T7 construct: domain: NTD; also called the NTD; N-terminal domain
The test is described as follows: ELISA on RBD and NTD proteins (FIG. 15B, FIG. 19B).

B1: 46472-4 (antibody, V domains shown)
VH: EVPLLESGGGLVQPGGSLRLSCVASGFPFSSFALSWVRQAPGKGLEWVSTINTNGGTTYYLDSVKGRFTVSRDNSKNTLFLQMSSLRAEDTAIYYCAKDLLSHSGTYSAGSTFDYWGQGTLVIVSS
VL: DIQMTQSPSSLSASVGDRVTITCRASQSIGVYLNWYQQKPGKAPKLLIHATSNLQSGVPSRFSCSGSGTEFTLTISSLQPEDFATYYCQESYSTNTFGQGTKLEIK
Take B1: the binding result with SS-B/La is reported as “no binding”; in the test with centromere B it was “no binding”; with Jo-1 it was “no binding”; with Scl 70, “no binding”; with SARS-CoV-2 S2 domain, “binds”.

B2: 46472-12 (antibody, V domains shown)
VH: QVQLVQSGAEVQKPGASVKVSCKASGYRFDIFDINWVRQASGQGPEWMGWMNPNSGNTGYAHKFQGRVTMTRDSSTNTAYMELSSLTFEDTAVYYCARDRVERTGNVGFGYYAMDVWGQGTTVIVSS
VL: DIQMTQSPSSLSASVGDRVTITCRASQSITNYLNWYQQRPGKAPRLLIYAASSLQSGVPSRFSGSGSGTDFTLTISSLQPEDFGTFYCQQTYSSPSYTFGQGTKLEMK
As to B2, the binding result with SS-B/La is on record as “no binding”; with centromere B, “no binding”; in the test with Jo-1 it was “no binding”; with Scl 70, “no binding”; in the test with SARS-CoV-2 S1 domain, “binds”.

B3: 46472-3 (antibody, V domains shown)
VH: QVQLVESGGGVVQPGRSLRLSCAASGFTFSVYPMHWVRQAPGRGLEWVAVISYDGSNQYYADSVRGRFTISRDNSKNTLYLHMNSLRPEDTAVFYCARDRSATYYGPFDYWGQGTLVTVSS
VL: SSELTQDPAVSVALGQTVRITCQGDSLRSYSASWYQQKPSQAPVLVIYANNNRPSGIPDRFSGSNSGNTASLTITGAQAEDEADYYCNSRDNSGNHPVIFGGGTTLTVL
Take B3: the binding result with SS-B/La is listed as “no binding”; with centromere B, “no binding”; in the test with Jo-1, “no binding”; with Scl 70, “no binding”; with SARS-CoV-2 S2 domain, “binds”.

B4: 46472-1 (antibody, V domains shown)
VH: QVQLVQSGAEVKKDGSSVKVSCEASGGTFSDYAISWVRQAPGQGLEWMGRIIPILGITNYAQQFQTRVTITADKSTSAVYMELSSLRSKDTAIYYCAREVNYYSAFDDWGQGTQVTVSS
VL: EIVMTQSPDTLSVSPGERATLSCRASQNVSSNLAWYQQKPGQAPRLLIYDASTRATGIPARFSGSGSGTEFTLAISSLQSEDFAVYYCQQYNFWWTFGQGTKVDIK
On to B4, for which the binding result was “no binding” with SS-B/La; “no binding” with centromere B; “no binding” with Jo-1; “no binding” with Scl 70; “binds” with SARS-CoV-2 S2 domain.

B5: 46472-6 (antibody, V domains shown)
VH: QLQLQESGPGLVKPSETLFLFCSVSGGSISISTHYWEWIRQPPGKGLEWIGSFYSSGTTYYNPSLKGRVTISADTSKSQISLKMSSVTAADTAVYYCARRPQYLLLSMTTGRRHHDFVMDVWGQGTTVTVSS
VL: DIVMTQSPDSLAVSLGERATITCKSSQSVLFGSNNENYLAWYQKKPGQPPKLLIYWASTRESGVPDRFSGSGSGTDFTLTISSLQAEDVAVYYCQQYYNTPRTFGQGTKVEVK
As to B5, the binding result in the test with SS-B/La is “no binding”; with centromere B it was “no binding”; with Scl 70, “no binding”; with SARS-CoV-2 NTD it was “binds”; in the test with SARS-CoV-2 S1 domain, “binds”.

B6: 46472-2 (antibody, V domains shown)
VH: EVQLVQSGAEVKKPGESLRISCKGSGYRFITYWISWVRQMPGRGLEWMGKIDPSDSSTNYSPSFQGHVAISVDKSFNTAYLQWSRLNTSDTAMYYCAAGPTGYDLLTGQYFPYFNYWAQGTLVTVSS
VL: NFMLTQPHSVSESPGKTVSISCTRSSGSIASKFMQWYQQRPGSAPTILIYEDNLRPSGVPDRFSGSIDTSSNSALLTISGLKTEDEADYYCQSYHGSDVVFGGGTKLTVL
As for B6, the binding result in the test with SS-B/La is “no binding”; in the test with centromere B it was “no binding”; with Jo-1, “no binding”; in the test with Scl 70, “no binding”; with SARS-CoV-2 S2 domain, “binds”.
